The results in this text go back to paper PMC11442470.

The experiment concerns the target GLS1 (endogenous, both KGA and GAC) (UniProt D3Z7P3). The experiment can be described thus: IP of endogenous GLS1, blot PDZD8. The settings on record: reference: wild type PDZD8; sites T527.

As to PDZD8 (from UniProt Q8NEN9) T527A, the “binding against the reference” value is given as “weaker”.
